Substrate in data set [1]: C[C@H](N)C(=O)O
Put plainly: alanine racemase photometric assay. It is filed as biochemical, Streptococcus pneumoniae. As to conditions: 23°C, L- to D-alanine direction.

Substrate in data set [2]: C[C@@H](N)C(=O)O
The data set can be described thus: alanine racemase photometric assay. As to conditions: 23°C, D- to L-alanine direction. Format: biochemical, Streptococcus pneumoniae.

As usually defined, the Km is the concentration of substrate that gives half-maximal velocity.

B1: AlrSP (alanine racemase from S. pneumoniae) (Streptococcus pneumoniae R6) (protein)
chain: MKASPHRPTKALIHLGAIRQNIQQMGAHIPQGTLKLAVVKANAYGHGAVAVAKAIQDDVDGFCVSNIDEAIELRQAGLSKPILILGVSEIEAVALAKEYDFTLTVAGLEWIQALLDKEVDLTGLTVHLKIDSGMGRIGFREASEVEQAQDLLQQHGVCVEGIFTHFATADEESDDYFNAQLERFKTILASMKEVPELVHASNSATTLWHVETIFNAVRMGDAMYGLNPSGAVLDLPYDLIPALTLESALVHVKTVPAGACMGYGATYQADSEQVIATVPIGYADGWTRDMQNFSVLVDGQACPIVGRVSMDQITIRLPKLYPLGTKVTLIGSNGDKEITATQVATYRVTINYEVVCLLSDRIPREYY
notes: full length, 367 residues, 39854 Da, homodimer (~80 kDa by gel filtration); pET17-alrSP (NdeI/BamHI) in E. coli BL21(DE3) pLysS; no tag mentioned
Take B1: the results for the Km in data set [1] and in data set [2] were 1920 µM and 2100 µM, respectively.

For the origin of these results see article PMC1885262, “Purification and preliminary crystallization of alanine racemase from Streptococcus pneumoniae” (BMC Microbiology, 2007).
